Experimental data published in PMC4013717, “AFF4 binding to Tat-P-TEFb indirectly stimulates TAR recognition of super elongation complexes at the HIV promoter” (eLife, 2014).

Columns and labels:
[1] = system: Cyclin T1 (P-TEFb subunit);CDK9 (P-TEFb subunit);HIV-1 Tat;AFF4 2-73 (human;not given;HIV-1;not given); assay: EMSA
[2] = system: Cyclin T1 (P-TEFb subunit);CDK9 (P-TEFb subunit);HIV-1 Tat;AFF4 2-98 (human;not given;HIV-1;not given); assay: EMSA
[3] = system: Cyclin T1 (P-TEFb subunit);CDK9 (P-TEFb subunit);HIV-1 Tat;AFF4 32-67 (human;not given;HIV-1;not given); assay: EMSA
[4] = target: Tat-P-TEFb complex (HIV-1 Tat 1–57, CDK9 1–330, cyclin T1 1–264) (HIV-1 | human) (UniProt P04608)
[5] = target: Tat-P-TEFb complex (HIV-1 Tat 1–57, CDK9 1–330, cyclin T1 1–264) (HIV-1 | human, UniProt P04608 1-57; P50750 1-330; O60563 1-264, N-terminally acetylated (N-acetyl group on M1)); assay: cell-based or functional assay
human cyclin T1 1–264 = target: T1, human cyclin T1 1–264 (human, UniProt O60563 1-264); assay: crystal structure; quaternary complex of Tat 1–57, AFF4 2–73, CDK9 1–330 and CycT1 1–264; 3.0 Å; three complexes in the a.u.; crystals from 2.4 M sodium formate, 10 mM MgCl2 at 18°C; settings: both partners purified
T1 construct: human cyclin T1, residues 1-264; also called CycT1

human CDK9 1–330 = target: T2, human CDK9 1–330 (human, UniProt P50750 1-330); assay: as above; settings: both partners purified
T2 construct: human CDK9, residues 1-330
T2 sequence (P50750 1-330): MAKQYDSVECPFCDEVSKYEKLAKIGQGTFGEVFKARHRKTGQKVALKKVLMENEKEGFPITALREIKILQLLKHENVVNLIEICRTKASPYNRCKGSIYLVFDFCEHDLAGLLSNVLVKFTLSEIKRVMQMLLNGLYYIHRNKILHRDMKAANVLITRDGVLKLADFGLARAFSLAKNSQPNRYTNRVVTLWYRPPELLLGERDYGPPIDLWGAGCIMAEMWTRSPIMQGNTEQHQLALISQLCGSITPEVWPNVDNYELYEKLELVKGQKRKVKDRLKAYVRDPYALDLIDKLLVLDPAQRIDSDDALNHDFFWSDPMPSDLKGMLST

T1 sequence (O60563 1-264): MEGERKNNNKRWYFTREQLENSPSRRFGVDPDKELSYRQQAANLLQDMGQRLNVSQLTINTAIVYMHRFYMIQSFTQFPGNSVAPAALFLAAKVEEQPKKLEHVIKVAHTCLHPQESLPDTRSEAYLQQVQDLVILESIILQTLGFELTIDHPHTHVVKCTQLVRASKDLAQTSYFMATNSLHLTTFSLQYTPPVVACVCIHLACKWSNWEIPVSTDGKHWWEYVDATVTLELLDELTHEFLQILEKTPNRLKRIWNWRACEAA

## TAR RNA (nucleotides 18-44)
[1]
  K half: 1.1 nM
[2]
  K half: 1.1 nM
[3]
  K half: 1.1 nM

## SPLFAEPYKVTSKEDKLSSRIQSMLGNYDEMKDFIG (domain or fragment) [AFF4 fragment 32–67]
[4]
  EMSA with 32P-labeled TAR RNA and Tat-P-TEFb in the presence of excess AFF4 32–67: increase of the affinity for TAR: 30 fold

B1: AFF4 fragment 2–73 (domain or fragment, UniProt Q9UHB7 2-73, looked up)
chain: NREDRNVLRMKERERRNQEIQQGEDAFPPSSPLFAEPYKVTSKEDKLSSRIQSMLGNYDEMKDFIGDRSIPK
notes: AFF4 (SEC scaffold), residues 2-73; The His-tag is TEV-protease-cleavable; also called AFF4_(2–73); source: E. coli, purified
[5]
  EMSA with 32P-labeled TAR RNA and Tat-P-TEFb in the presence of excess AFF4 2–73: increase of the affinity for TAR: 30 fold
Human cyclin T1 1–264
  binding result: binds
Human CDK9 1–330
  binding result: binds

B2: AFF4 fragment 2–98 (domain or fragment)
chain: NREDRNVLRMKERERRNQEIQQGEDAFPPSSPLFAEPYKVTSKEDKLSSRIQSMLGNYDEMKDFIGDRSIPKLVAIPKPTVPPSADEKSNPNFFEQR
[4]
  EMSA with 32P-labeled TAR RNA and Tat-P-TEFb in the presence of excess AFF4 2–98: increase of the affinity for TAR: 30 fold
